{
  "source": "patent US9791436B2",
  "about": "“Protease-based biosensor” (priority 2012, dated 2017)",
  "molecules": {"B1": {"name": "H6-143: thrombin-inducible autoinhibited TVMV biosensor, SEQ ID NO: 6 (protein)", "chain": "SSGSKALLKGVRDFNPISACVCLLENSSDGHSERLFGIGFGPYIIANQHLFRRNNGELTIKTMHGEFKVKNSTQLQMKPVEGRDIIVIKMAKDFPPFPQKLKFRQPTIKDRVCMVSTNFQQKSVSSLVSESSHIVHKEDTSFWQHWITTKDGQCGSPLVSIIDGNILGIHSLTHTTNGSNYFVEFPEKFVATYLDAADGWCKNWKFNADKISWGSFYLYEDAPEDFMSGLVPRGVGREYVRFAPGSTHHHHHH", "modifications": "protease construct"}, "B2": {"name": "H6-68: thrombin-inducible autoinhibited TVMV biosensor, SEQ ID NO: 7 (protein)", "chain": "B1 chain with Y217I, Y219W", "modifications": "protease construct"}, "B3": {"name": "H6-AP: thrombin-inducible autoinhibited TVMV biosensor, SEQ ID NO: 1 (protein)", "chain": "B1 chain with Y217T, Y219V, Y239T", "modifications": "protease construct"}, "B4": {"name": "68-GP: thrombin-inducible autoinhibited TVMV biosensor, SEQ ID NO: 4 (protein)", "chain": "SSGSKALLKGVRDFNPISACVCLLENSSDGHSERLFGIGFGPYIIANQHLFRRNNGELTIKTMHGEFKVKNSTQLQMKPVEGRDIIVIKMAKDFPPFPQKLKFRQPTIKDRVCMVSTNFQQKSVSSLVSESSHIVHMRDTSFWQHWITTKDGQCGSPLVSIIDGNILGIHSLTHTTNGSNYFVEFPEKFVATYLDAADGWCKNWKFNADKISWGSFILWEDSGLVPRGVSGEGEYVRFGPGSTHHHHHH", "modifications": "protease construct"}, "B5": {"name": "68-AP: thrombin-inducible autoinhibited TVMV biosensor, SEQ ID NO: 5 (protein)", "chain": "B4 chain with G239A", "modifications": "protease construct"}, "B6": {"name": "2B4-AP: thrombin-inducible autoinhibited TVMV biosensor, SEQ ID NO: 3 (protein)", "chain": "SSGSKALLKGVRDFNPISACVCLLENSSDGHSERLFGIGFGPYIIANQHLFRRNNGELTIKTMHGEFKVKNSTQLQMKPVEGRDIIVIKMAKDFPPFPQKLKFRQPTIKDRVCMVSTNFQQKSVSSLVSESSHIVHMRDTSFWQHWITTKDGQCGSPLVSIIDGNILGIHSLTHTTNGSNYFVEFPEKFVATYLDAADGWCKNWKFNADKISWGSFTLVEDAPSGLVPRGVSGEGETVRFAPGSTHHHHHH", "modifications": "protease construct"}, "B7": {"name": "2B4-GP: thrombin-inducible autoinhibited TVMV biosensor, SEQ ID NO: 2 (protein)", "chain": "B6 chain with A241G", "modifications": "protease construct"}, "B8": {"name": "SH3-TVMV-AC-AI-37-2: SH3-domain-tagged TVMV-based allosteric receptor, SEQ ID NO: 28 (protein)", "chain": "SGGSGAEYVRALFDFNGNDEEDLPFKKGDILRIRDKPEEQWWNAEDSEGKRGMIPVPYVEKYRPASASVSALIGGRGGSGGSGGSGGSGGSGGSSKALLKGVRDFNPISACVCLLENSSDGHSERLFGIGFGPYIIANQHLFRRNNGELTIKTMHGEFKVKNSTQLQMKPVEGRDIIVIKMAKDFPPFPQKLKFRQPTIKDRVCMVSTNFQQKSVSSLVSESSHIVHKEDTSFWQHWITTKDGQCGSPLVSIIDGNILGIHSLTHTTNGSNYFVEFPEKFVATYLDAADGWCKNWKFNADKISWGSFILWESGSPELGFSISGGVGGRGNPFRPDDDGIFVTRVQPEGPASKLLQPGDKIIQANGYSFINIEHGQAVSLLKTFQNTVELIIVREVGNGAKQEIRVRVEKDGGSGGGGVSSVPTNLEVVAATPTSLLISWDAYRELPVSYYRITYGETGGNSPVQEFTVPGSKSTATISGLKPGVDYTITVYAHYNYHYYSSPISINYRGPGREYVRFAPGSTHHHHHH", "modifications": "protease construct"}},
  "note": "Positions count from the first letter of the chain named.",
  "data": [
    {"target": "T1, bovine thrombin (Bos taurus, UniProt P00735)", "T1 construct": "addition of bovine thrombin (1 U per 200 μL)", "assay": "Thrombin induction of autoinhibited TVMV-based biosensor protease activity (quenched fluorescent TVMV substrate)", "type": "biochemical", "conditions": "biosensor 1 μM, 10 μM protease substrate, presence vs absence of bovine thrombin (1 U per 200 μL)", "experimental": "Libraries of autoinhibited TVMV mutants were transformed into chemically competent BL21(DE3)-RIL cells hosting the autolysis plasmid 05665 (FIG. 2A) and plated onto LB agar plates supplemented with 100 μg/mL carbenicillin, 50 μg/mL kanamycin and 34 μg/mL chloramphenicol. Following overnight incubation at 37° C., single colonies were inoculated into 96 deep-well plates filled with minimal auto-induction medium (1 mL) which was supplemented with 100 μg/mL carbenicillin, 50 μg/mL kanamycin and 34 μg/mL chloramphenicol. Cells were left to grow for 72 h at 30° C. at 320 rpm and typically reached OD values of approximately 10. To lyse cells, aliquots of cell cultures (100 μL) from half a 96-well-plate (48 samples) were diluted two-fold into autolysis medium (100 μL) and left to incubate for 90 min at 30° C. at 200 rpm. Aliquots of cell lysates (10 μL) were duplicated after transferring them into separate halves of a black 96-well-plate filled with protease assay buffer (140 μL). One of the halves additionally contained 1 U thrombin in order to cleave the linker connecting TVMV to its autoinhibition domain and relieve autoinhibtion. The reaction was initiated following the addition of substrate solution (50 μL) which gave rise to 10 μM TVMV substrate peptide in the final reaction. The reaction was monitored using a fluorometer (Biotek Synergy 4) by measuring the release of a quenched fluorophore (7-Methoxycoumarinyl-4-acetyl) at 405 nm following excitation at 330 nm. The induction of TVMV-based protease activities was evaluated by comparing the time course of the reactions in the presence and absence of thrombin. The plasmids encoding for desirable mutants were subsequently isolated from single colonies and their identity confirmed by Sanger sequencing.\nTo measure induction ratios under saturating reaction conditions, TVMV- and HCV-based signal transducers (5 μg) were pre-incubated for 10 min in 150 μL protease assay buffer (50 mM Tris-HCl, 1 mM DTT and 0.5 mM EDTA, pH 8.0 for TVMV, and 50 mM Tris-HCl, 50 mM NaCl and 1 mM DTT, pH 8.0 for HCV) in the presence and absence of the inducing protease: i.e. 1 U thrombin, 1 U Factor Xa, 5 μg PSA, 1 μg MMP-7 and 1 μg for MMP-9 for TVMV-based signal transducers as indicated, and 5 μg TVMV for HCV-based signal transducers. The reaction was initiated following the addition of 50 μL substrate solution that contained 40 μM peptide substrate and gave rise to 10 μM peptide substrate in a final reaction volume of 200 μL. The reaction was monitored using a fluorometer (Biotek Synergy 4) by measuring the release of 7-Methoxycoumarinyl-4-acetyl from the quenched substrate peptide at 405 nm following excitation at 330 nm. The induction ratio of TVMV-based protease activities in the inhibited and uninhibited state was evaluated by comparing the reaction in the presence and absence of the activating protease. Activity traces labelled as ‘Background’ generally denote control samples that contain peptide substrate, but no enzyme.\nThe biosensor (1 μM) was incubated together with 10 μM protease substrate in 50 mM Tris-HCl, 1 mM DTT and 0.5 mM EDTA. Relief of autoinhibition was achieved upon addition of bovine thrombin (1 U per 200 μL).", "values": [
      {"molecule": "B1", "Fold Induction": "~60 fold"},
      {"molecule": "B2", "Fold Induction": "~150-200 fold"},
      {"molecule": "B3", "Fold Induction": "~50 fold"},
      {"molecule": "B4", "Fold Induction": "~60 fold"},
      {"molecule": "B5", "Fold Induction": "~100 fold"},
      {"molecule": "B6", "Fold Induction": "~25 fold"},
      {"molecule": "B7", "Fold Induction": "~17 fold"}
    ]},
    {"target": "T2, PDZ ligand peptide-1 (RGSIDTWV) (Homo sapiens, UniProt Q96RT1)", "T2 construct": "made in house; host or cells: E. coli BL21(DE3)-RIL", "assay": "Protease signalling cascade: SH3-tagged TVMV-based allosteric receptor coupled to HCV-based signal amplifier, ligand titration", "type": "biochemical", "conditions": "not given", "experimental": "(§1) Signalling cascades consisting of SH3-domain-tagged TVMV-based allosteric receptors (10 nM) and SH3-peptide-tagged TVMV-inducible HCV-based signal transducers (200 nM) were measured in protease assay buffer consisting of 50 mM Tris-HCl, 200 mM NaCl and 1 mM DTT, pH 8.0. The reaction was strictly initiated by simultaneously adding the TVMV-based allosteric receptor and HCV substrate peptide to a final concentration of 10 μM along with the PDZ ligand peptide-1 ([…]) at a final concentration of 10 μM. To determine the KD of TVMV-based allosteric receptors, the PDZ ligand peptide-1 ([…]) was suitably diluted over a concentration range from 2 nM to 400 nM as indicated in FIG. 13B. To determine the KD, initial rates were plotted against ligand concentrations and the fitted values analysed by non-linear regression assuming a one-site specific binding model (GraphPad Prism 5).", "units": {"improvement of the sensitivity of the assay": "fold"}, "values": [
      {"molecule": "B8", "improvement of the sensitivity of the assay": 20}
    ]},
    {"target": "T2, PDZ ligand peptide-1 (RGSIDTWV)", "assay": "Protease signalling cascade: SH3-tagged TVMV-based allosteric receptor coupled to HCV-based signal amplifier, ligand titration", "type": "biochemical", "conditions": "FIG. 13B", "experimental": "as §1", "units": {"concentration of receptor faithfully detected": "nM"}, "values": [
      {"molecule": "B8", "concentration of receptor faithfully detected": 5}
    ]}
  ]
}
